B1: H1H20639D (bispecific antibody, V domains shown)
VH 1: QLQLQESGPGLVKPSETLSLTCTVSGGSISSSSYYWVWIRQPPGKGLEWIGNIYFSGSTYYNPSLKSRVTITVDTSKNQFSLKMTSVTAADTAVYYCARPFYGSRGDYYYGMDVWGQGTTVTVSS
VH 2: QVQLVESGGGVVQPGRSLRLSCAASGFTFSSYGMHWVRQAPGKGLEWVTNIWYDGNNKYYTDSVKGRFTISRDNSKNTLYLQMNSLTAEDTAVYYCARDGDYYVMDVWGQGTTVTVSS
VL: not shown
notes: also called anti-IsdB x anti-C1q bispecific antibody
B2: H1H20645D (bispecific antibody, V domains shown)
VH 1: QLQLQESGPGLVKPSETLSLTCTVSGGSISSSSYYWVWIRQPPGKGLEWIGNIYFSGSTYYNPSLKSRVTITVDTSKNQFSLKMTSVTAADTAVYYCARPFYGSRGDYYYGMDVWGQGTTVTVSS
VH 2: EVQLVQSGPEVKKPGESLKIACKASGYSFTSYWIGWVRQMPGKGLEWMGIIFPADSDTRYSPSFQGQVTISADKSITTAYLQWRSLQASDTAKYYCVRHVRWSGENWGQGTLVTVSS
VL: not shown
notes: as for B1
B3: H1H20646D (bispecific antibody, V domains shown)
VH 1: QLQLQESGPGLVKPSETLSLTCTVSGGSISSSSYYWVWIRQPPGKGLEWIGNIYFSGSTYYNPSLKSRVTITVDTSKNQFSLKMTSVTAADTAVYYCARPFYGSRGDYYYGMDVWGQGTTVTVSS
VH 2: EVQLVQSGAEVRKPGESLKISCKGSGFSFTSYWIGWVRQMPGKGLEWMGIIFPADSDTRYSPSFQGQVTISADKSINTAYLQWRSLKVSDTAMYYCTKLQYWYFDLWGRGTLVTVSS
VL: not shown
notes: as for B1
B4: H1H20643D (bispecific antibody, V domains shown)
VH 1: QLQLQESGPGLVKPSETLSLTCTVSGGSISSSSYYWVWIRQPPGKGLEWIGNIYFSGSTYYNPSLKSRVTITVDTSKNQFSLKMTSVTAADTAVYYCARPFYGSRGDYYYGMDVWGQGTTVTVSS
VH 2: EVQLVQSGAEVKKPGDSLKISCKGSGYSFTTYWIGWVRQMPGKGLEWMGIIFPGDSDTRYSPSFQGQVTISADKSINTAYLQWSSLKASDTAIYYCARHNRWVADYWGQGTLVTVSS
VL: not shown
notes: as for B1
B5: H1H20644D (bispecific antibody, V domains shown)
VH 1: QLQLQESGPGLVKPSETLSLTCTVSGGSISSSSYYWVWIRQPPGKGLEWIGNIYFSGSTYYNPSLKSRVTITVDTSKNQFSLKMTSVTAADTAVYYCARPFYGSRGDYYYGMDVWGQGTTVTVSS
VH 2: QVQLVESGGGVVQPGRSLRLSCATSGFTFSSYGMHWVRQAPGKGLEWVALIWYDRNNEYYADSVKGRFTISRDNSKNTLYLQMNSLRAEDTAVYYCARGEWEMDYWGQGTLVTVSS
VL: not shown
notes: as for B1
B6: H1H20640D (bispecific antibody, V domains shown)
VH 1: QLQLQESGPGLVKPSETLSLTCTVSGGSISSSSYYWVWIRQPPGKGLEWIGNIYFSGSTYYNPSLKSRVTITVDTSKNQFSLKMTSVTAADTAVYYCARPFYGSRGDYYYGMDVWGQGTTVTVSS
VH 2: EVQLVQSGPEVKKPGESLKISCKGSGYNFLGYWIGWVRQMPEKGLEWMAFIYPGDSDFRYSPSFQGQVTISVDRSVTTAYLHWSSLKASDTGIYFCVRQTGNGMDVWGQGTTVTVSS
VL: not shown
notes: as for B1
B7: H1H20647D (bispecific antibody, V domains shown)
VH 1: QLQLQESGPGLVKPSETLSLTCTVSGGSISSSSYYWVWIRQPPGKGLEWIGNIYFSGSTYYNPSLKSRVTITVDTSKNQFSLKMTSVTAADTAVYYCARPFYGSRGDYYYGMDVWGQGTTVTVSS
VH 2: QVQLVESGGGVVQPGRSLRLSCAASGFTFSSYGMHWVRQAPGKGLEWVALIWYDGSNKYFADSVKGRFTISRDISKNTLYLQMNSLRAEDTAVYYCARDGDYYGMDVWGQGTTVTVSS
VL: not shown
notes: as for B1
B8: H1H20634D (bispecific antibody, V domains shown)
VH 1: EVQLVESGGGLVQPGRSLRLSCTTSGFTFDDYAMHWVRQVPGQGLEWVAGLSWNSDTIGYADSVKGRFTISRDNAKNSLYLQMKSLKAEDTALYYCTKDFYHSLNNWNYYYFDYWGQGTLVTVSS
VH 2: QVQLVESGGGVVQPGRSLRLSCVASGFTFSSYGFHWVRQAPGKGLEWVAVIWYDGSNEGYVDSVRGRFTISRDFSKNTLYLQMNSLRIEDTAVYYCARRGDYYIMDVWGQGTTVTVSS
VL: not shown
notes: as for B1

Key:
[1] = target: T1, native human complement component C1q protein purified from human serum (Quidel) (human, UniProt P02745 23-245; P02746 28-253; P02747 29-245); assay: cell-based or functional assay
[2] = target: T1, native human complement component C1q …; assay: cell-based or functional assay; remark: listed apart in the source
[3] = target: T2, IsdB expressed on the surface of S. aureus Wood 46 (Staphylococcus aureus); assay: ELISA on plate-coated S. aureus Wood 46
T2 construct: whole, on cells
Protocol: Briefly, S. aureus Wood 46 was grown in RPMI overnight, washed in PBS and adjusted to an OD₆₀₀ of 0.25. MaxiSorp 96 well microtiter plates were coated overnight with 100 μl of S. aureus culture per well. Plates were washed and blocked with 3% BSA. […] Anti-human HRP conjugated secondary antibody was added to washed plates. Luminescence reagents (SuperSignal Pico) were then added to the wells and signal was detected in a plate reader (Victor X3 plate reader, Perkin Elmer) immediately. Luminescence values were analyzed by a four-parameter logistic equation over a 7-point response curve (GraphPad Prism) to determine the binding EC₅₀, of the antibodies.

[4] = target: T1, native human complement component C1q …; assay: SPR Biacore, captured Ab, hC1q analyte, 25C
[5] = target: T1, native human complement component C1q …; assay: SPR Biacore, captured Ab, hC1q analyte, 37C
[6] = target: T3, Recombinant bacterial IsdB expressed with a hexahistidine tag (IsdB-6xHis; REGN2655) (Staphylococcus aureus, UniProt A6QG30 42-613); assay: SPR Biacore, captured Ab, IsdB-6xHis analyte, 25C
[7] = target: T3, Recombinant bacterial IsdB expressed …; assay: SPR Biacore, captured Ab, IsdB-6xHis analyte, 37C
[8] = target: T1, native human complement component C1q …; assay: competition ELISA, 6 nM biot-hC1q, competitor plate-coated hIgM
[9] = target: T1, native human complement component C1q …; assay: competition ELISA, 6 nM biot-hC1q, competitor plate-coated hIgG2-k
[10] = target: T1, native human complement component C1q …; assay: competition ELISA, 30 pM biot-hC1q, competitor plate-coated hIgG1-k
[11] = target: T1, native human complement component C1q …; assay: competition ELISA, 30 pM biot-hC1q, competitor plate-coated hIgG3-k

T3 sequence (A6QG30 42-613, tags left off): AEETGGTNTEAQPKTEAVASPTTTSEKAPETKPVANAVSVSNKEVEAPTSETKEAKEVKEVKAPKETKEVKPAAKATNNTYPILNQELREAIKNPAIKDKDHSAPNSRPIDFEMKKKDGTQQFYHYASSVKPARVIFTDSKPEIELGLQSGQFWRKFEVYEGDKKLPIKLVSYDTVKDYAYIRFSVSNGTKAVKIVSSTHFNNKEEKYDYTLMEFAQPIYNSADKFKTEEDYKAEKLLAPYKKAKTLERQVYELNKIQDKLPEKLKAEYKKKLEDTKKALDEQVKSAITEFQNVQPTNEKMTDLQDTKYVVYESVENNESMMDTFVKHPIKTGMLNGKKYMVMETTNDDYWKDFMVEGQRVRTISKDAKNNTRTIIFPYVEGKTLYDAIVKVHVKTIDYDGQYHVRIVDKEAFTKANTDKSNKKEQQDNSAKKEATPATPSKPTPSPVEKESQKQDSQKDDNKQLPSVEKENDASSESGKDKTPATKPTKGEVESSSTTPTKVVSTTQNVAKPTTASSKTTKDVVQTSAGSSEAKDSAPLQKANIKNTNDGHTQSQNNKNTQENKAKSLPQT
T1 sequence (P02745 23-245 limits assumed, chain 1 of 3): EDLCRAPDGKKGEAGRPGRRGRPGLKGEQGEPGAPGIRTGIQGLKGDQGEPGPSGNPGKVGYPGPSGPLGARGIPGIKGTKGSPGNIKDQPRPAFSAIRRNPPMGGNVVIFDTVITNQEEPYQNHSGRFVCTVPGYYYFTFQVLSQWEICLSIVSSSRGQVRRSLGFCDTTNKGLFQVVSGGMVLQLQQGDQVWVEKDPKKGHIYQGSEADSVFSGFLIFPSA
T1 sequence (P02746 28-253 limits assumed, chain 2 of 3): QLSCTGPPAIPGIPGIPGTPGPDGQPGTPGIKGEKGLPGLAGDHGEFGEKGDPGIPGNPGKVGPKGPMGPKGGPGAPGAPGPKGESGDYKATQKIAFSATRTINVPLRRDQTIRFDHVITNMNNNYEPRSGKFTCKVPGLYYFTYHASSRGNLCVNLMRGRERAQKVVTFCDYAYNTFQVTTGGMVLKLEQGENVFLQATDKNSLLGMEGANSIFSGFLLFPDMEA
T1 sequence (P02747 29-245 limits assumed, chain 3 of 3): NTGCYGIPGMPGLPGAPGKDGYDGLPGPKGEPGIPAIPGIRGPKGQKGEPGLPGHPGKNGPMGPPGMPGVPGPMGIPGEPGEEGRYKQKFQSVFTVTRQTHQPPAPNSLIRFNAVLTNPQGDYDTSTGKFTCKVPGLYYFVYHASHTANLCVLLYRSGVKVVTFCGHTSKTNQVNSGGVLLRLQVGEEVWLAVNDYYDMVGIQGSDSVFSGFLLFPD
T2 sequence (Q2FZF0 41-613): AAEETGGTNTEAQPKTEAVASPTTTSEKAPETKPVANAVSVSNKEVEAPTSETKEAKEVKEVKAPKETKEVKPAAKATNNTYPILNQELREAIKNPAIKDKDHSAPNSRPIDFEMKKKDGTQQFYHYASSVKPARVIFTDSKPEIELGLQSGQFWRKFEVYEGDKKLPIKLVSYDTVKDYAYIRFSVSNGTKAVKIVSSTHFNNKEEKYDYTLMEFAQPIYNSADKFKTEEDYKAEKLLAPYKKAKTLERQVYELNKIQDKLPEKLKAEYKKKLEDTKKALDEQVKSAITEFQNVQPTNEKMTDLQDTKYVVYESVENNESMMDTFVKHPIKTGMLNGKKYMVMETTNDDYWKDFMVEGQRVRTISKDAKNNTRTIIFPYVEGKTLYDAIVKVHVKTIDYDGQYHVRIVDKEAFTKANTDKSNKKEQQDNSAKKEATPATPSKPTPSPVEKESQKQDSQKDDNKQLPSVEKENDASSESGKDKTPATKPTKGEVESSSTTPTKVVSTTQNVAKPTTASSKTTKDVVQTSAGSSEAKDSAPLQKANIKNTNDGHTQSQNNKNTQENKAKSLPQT

| Binder | inhibition of CDC of Daudi cells, IC50 [M] [1] [M] | inhibition of CDC of Daudi cells, Max % Inhibition [1] [%] | C1q deposition on S. aureus Cowan I EC50 [2] [pM] | EC50 [3] [nM] | Kd [4] [nM] | koff [4] [s⁻¹] | kon [4] [M⁻¹ s⁻¹] | t½ [4] [min] | Kd [5] [nM] | koff [5] [s⁻¹] | kon [5] [M⁻¹ s⁻¹] | t1/2 [5] [min] | Kd [6] [nM] | koff [6] [s⁻¹] | kon [6] [M⁻¹ s⁻¹] | t½ [6] [min] | Kd [7] [nM] | koff [7] [s⁻¹] | kon [7] [M⁻¹ s⁻¹] | t1/2 [7] [min] | further results |
| --- | --- | --- | --- | --- | --- | --- | --- | --- | --- | --- | --- | --- | --- | --- | --- | --- | --- | --- | --- | --- | --- |
| B1 | > 1e-07 | 70 | 2060 | 13.3 | 0.655 | 0.00612 | 9.35e+06 | 1.89 | 0.664 | 0.00859 | 1.29e+07 | 1.34 | 11.3 | 0.000562 | 49800 | 20.5 | 18.5 | 0.00148 | 80200 | 7.81 | % Blockade with 600 nM bispecific Ab [8]: 86%; IC50 [8]: 42 nM; % Blockade with 600 nM bispecific Ab [9]: 82%; IC50 [9]: 70 nM; % Blockade with 30 nM bispecific Ab [10]: 64%; % Blockade with 30 nM bispecific Ab [11]: 33% |
| B2 | 3.4e-08 | ≥ 99 | 298 | 11.9 | 0.158 | 0.00452 | 2.86e+07 | 2.56 | 0.88 | 0.0317 | 3.6e+07 | 0.36 | 9.95 | 0.000551 | 55400 | 21 | 19.1 | 0.00155 | 81200 | 7.43 | % Blockade with 600 nM bispecific Ab [8]: 95%; IC50 [8]: 13 nM; % Blockade with 600 nM bispecific Ab [9]: 87%; IC50 [9]: 18 nM; % Blockade with 30 nM bispecific Ab [10]: 94%; IC50 [10]: 0.84 nM; % Blockade with 30 nM bispecific Ab [11]: 87%; IC50 [11]: 5.3 nM |
| B3 | – | – | – | 12.9 | – | – | – | – | – | – | – | – | 9.74 | 0.000433 | 44500 | 26.7 | 18.5 | 0.0015 | 80700 | 7.72 | – |
| B4 | – | – | – | 10.1 | – | – | – | – | – | – | – | – | 9.42 | 0.000555 | 58900 | 20.8 | 18.5 | 0.00148 | 79900 | 7.81 | – |
| B5 | > 1e-07 | 88 | 1120 | 12.6 | 0.232 | 0.00624 | 2.69e+07 | 1.85 | 0.924 | 0.0276 | 2.98e+07 | 0.42 | 11 | 0.000554 | 50300 | 20.8 | 18.2 | 0.0015 | 82500 | 7.7 | % Blockade with 600 nM bispecific Ab [8]: 75%; IC50 [8]: 43 nM; % Blockade with 600 nM bispecific Ab [9]: 81%; IC50 [9]: 63 nM; % Blockade with 30 nM bispecific Ab [10]: 66%; IC50 [10]: 24 nM; % Blockade with 30 nM bispecific Ab [11]: 36% |
| B6 | – | – | – | 18 | – | – | – | – | – | – | – | – | 9.36 | 0.000553 | 59100 | 20.9 | 17.2 | 0.00142 | 82800 | 8.13 | – |
| B7 | > 1e-07 | 82 | 587 | 7.3 | 0.368 | 0.0034 | 9.25e+06 | 3.39 | 0.439 | 0.00576 | 1.31e+07 | 2 | 12.3 | 0.000565 | 46000 | 20.4 | 21.5 | 0.00154 | 71500 | 7.51 | % Blockade with 600 nM bispecific Ab [8]: 91%; IC50 [8]: 25 nM; % Blockade with 600 nM bispecific Ab [9]: 80%; IC50 [9]: 32 nM; % Blockade with 30 nM bispecific Ab [10]: 85%; IC50 [10]: 9 nM; % Blockade with 30 nM bispecific Ab [11]: 60% |
| B8 | – | – | – | 1.04 | – | – | – | – | – | – | – | – | 2.65 | 0.000296 | 112000 | 39 | 3.81 | 0.000573 | 150000 | 20.2 | – |

From patent US20210147519A1 (Regeneron, published 2021)
